In assay [1] the target is recombinant mouse FGFR2b (mouse) (UniProt P21803). The assay is described as follows: ELISA, antibody 1ug/mL.
The next assay has as its target FGFR1 (acro) (UniProt P11362). The assay is described as follows: ELISA, antibody 10 µg/mL.
Assay [2] addresses recombinant mouse FGFR2b (mouse) (UniProt P21803). The assay is described as follows: BLI, antibody on AHC2 sensor.

Substitutions are numbered along the chain they refer to.

Sequence of FGFR1 (acro) (P11362 22-376): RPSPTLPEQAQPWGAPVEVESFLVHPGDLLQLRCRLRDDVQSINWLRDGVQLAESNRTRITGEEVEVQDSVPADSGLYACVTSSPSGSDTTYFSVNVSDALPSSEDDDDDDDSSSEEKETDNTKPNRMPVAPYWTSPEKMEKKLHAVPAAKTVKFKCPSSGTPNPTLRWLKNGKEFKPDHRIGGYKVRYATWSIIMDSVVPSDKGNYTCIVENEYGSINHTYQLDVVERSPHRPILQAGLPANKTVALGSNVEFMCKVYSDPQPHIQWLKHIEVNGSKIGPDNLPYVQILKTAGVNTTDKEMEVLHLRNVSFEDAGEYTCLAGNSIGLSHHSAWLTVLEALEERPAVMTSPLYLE
Sequence of recombinant mouse FGFR2b (mouse) (P21803 22-377): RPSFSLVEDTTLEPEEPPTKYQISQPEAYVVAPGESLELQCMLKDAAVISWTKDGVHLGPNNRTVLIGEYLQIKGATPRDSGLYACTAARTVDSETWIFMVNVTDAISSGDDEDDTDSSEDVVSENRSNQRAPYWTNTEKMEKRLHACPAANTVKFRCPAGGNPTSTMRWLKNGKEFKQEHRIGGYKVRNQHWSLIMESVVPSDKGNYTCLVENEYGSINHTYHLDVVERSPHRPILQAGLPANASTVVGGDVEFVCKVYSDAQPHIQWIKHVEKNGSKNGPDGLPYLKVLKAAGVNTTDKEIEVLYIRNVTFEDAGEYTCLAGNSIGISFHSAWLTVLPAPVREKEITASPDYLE

B1: 1C10 scFv-Fc (Fc fusion)
chain: QVQLQQSGAELVKPGASVKMSCKASGYTFRYYNMHWVKRTPGQGLEWIGLIYPDNGDTSYNQKFKGKATLTADTSSSTAYMQLSSLTSEDSAVYYCARGGLDYWGQGTSLTVSSGGGGSGGGGSGGGGSDIVMTQSPASLSASVGETVTITCRASGNIHNYLAWYQQKQGKSPQLLVYNAKTLADGVPSRFSGSGSGTQYSLKINSLQPEDFGSYYCQHFWSTPYTFGGGTKLEMKESKYGPPCPPCPAPEAAGGPSVFLFPPKPKDTLMISRTPEVTCVVVDVSQEDPEVQFNWYVDGVEVHNAKTKPREEQFNSTYRVVSVLTVLHQDWLNGKEYKCKVSNKGLPSSIEKTISKAKGQPREPQVYTLPPSQEEMTKNQVSLTCLVKGFYPSDIAVEWESNGQPENNYKTTPPVLDSDGSFFLYSKLTVDKSRWQEGNVFSCSVMHEALHNHYTQKSLSLSLG
For the molecule B1, the OD (450 nm) value in assay [1] worked out at 2.94. In addition, the OD (450 nm) value in the assay with FGFR1 (acro) was 0.626. Moreover, in assay [2], the Kd amounted to 75.6 nM, the koff amounted to 0.00216 s⁻¹ and the kon came to 28600 M⁻¹ s⁻¹.

B2: 3B4 scFv-Fc (Fc fusion)
chain: EVQLQQSGADLVKPGASVKMSCKASGYTFSYYNMHWVRRTPGQGLEWIGLIYPDNGDTSYNQKFKGKATLTADTSSSTAYMQLSSLTSEDSAVYYCARGGLDYWGQGTTLTVSSGGGGSGGGGSGGGGSDIQMIQSPASMSASVGETVTITCGASENIYGALNWYQRKQGKSPQLLIYGATNLADGMSSRFSGSGSGRQYSLKISSLHPDDVATYYCQNVLSTPYTFGGGTKLEMKESKYGPPCPPCPAPEAAGGPSVFLFPPKPKDTLMISRTPEVTCVVVDVSQEDPEVQFNWYVDGVEVHNAKTKPREEQFNSTYRVVSVLTVLHQDWLNGKEYKCKVSNKGLPSSIEKTISKAKGQPREPQVYTLPPSQEEMTKNQVSLTCLVKGFYPSDIAVEWESNGQPENNYKTTPPVLDSDGSFFLYSKLTVDKSRWQEGNVFSCSVMHEALHNHYTQKSLSLSLG
For B2, the OD (450 nm) value in assay [1] turned out to be 2.88. Moreover, the OD (450 nm) value with FGFR1 (acro) is 0.458. In addition, in assay [2], the Kd stood at 27.3 nM, the koff turned out to be 0.0015 s⁻¹ and the kon came to 54900 M⁻¹ s⁻¹.

B3: 3B7 scFv-Fc (Fc fusion)
chain: B2 chain with D10E, S30R, R38K, L101F, I134T, M140L, M235L
Turning to B3, the OD (450 nm) value in assay [1] worked out at 2.97. For the same molecule, the OD (450 nm) value in the assay with FGFR1 (acro) stood at 0.083. Besides, in assay [2], the Kd worked out at 33.9 nM, the koff amounted to 0.00172 s⁻¹ and the kon is 50700 M⁻¹ s⁻¹.

B4: 3F11 scFv-Fc (Fc fusion)
chain: QVQLQQSGAELVKPGASVKMSCKASGYTFAPYNIHWVRQTPGQGLEWIGLIYPDNGDTSYNQKFKAKATLTADKSSSTAYMQLSSLTSEDSAVYYCARGGFDYWGQGTSLTVSSGGGGSGGGGSGGGGSDIVMTQSQKFMSTSVGDRVSVTCKASQNVGTNVAWYQQKPGQSPKALIYSASYRYSGVPDRFTGSGSGTDFTLTISNVQSEDLAEYFCQQHYSTPFTFGSGTKLEIKESKYGPPCPPCPAPEAAGGPSVFLFPPKPKDTLMISRTPEVTCVVVDVSQEDPEVQFNWYVDGVEVHNAKTKPREEQFNSTYRVVSVLTVLHQDWLNGKEYKCKVSNKGLPSSIEKTISKAKGQPREPQVYTLPPSQEEMTKNQVSLTCLVKGFYPSDIAVEWESNGQPENNYKTTPPVLDSDGSFFLYSKLTVDKSRWQEGNVFSCSVMHEALHNHYTQKSLSLSLG
Consider B4, for which the OD (450 nm) value in assay [1] was determined as 2.92. Moreover, the OD (450 nm) value with FGFR1 (acro) worked out at 0.1. In assay [2], the Kd was 26 nM, the koff stood at 0.0015 s⁻¹ and the kon worked out at 57800 M⁻¹ s⁻¹.

B5: 2B2 scFv-Fc (Fc fusion)
chain: QLQLQQSGAELVKPGASVKMSCKASGYTFASYNLHWVKQTPGQGLEWIGLIYPENGDTSYNQKFKDKATLTADKSSTTAYIQLSSLASEDSAVYFCARGGFDYWGQGTTLTVSSGGGGSGGGGSGGGGSDIVMTQSQKFMSTSVGDRVSVTCKASQNVGTNVAWYQQKPGQSPKALIYSASYRYSGVPDRFTGSGSGTDYTLTISSVQAEDLALYYCQQHYSTPYTFGGGTKLELKESKYGPPCPPCPAPEAAGGPSVFLFPPKPKDTLMISRTPEVTCVVVDVSQEDPEVQFNWYVDGVEVHNAKTKPREEQFNSTYRVVSVLTVLHQDWLNGKEYKCKVSNKGLPSSIEKTISKAKGQPREPQVYTLPPSQEEMTKNQVSLTCLVKGFYPSDIAVEWESNGQPENNYKTTPPVLDSDGSFFLYSKLTVDKSRWQEGNVFSCSVMHEALHNHYTQKSLSLSLG
B5: the OD (450 nm) value in assay [1] is 3.09. This molecule came in with an OD (450 nm) value with FGFR1 (acro) of 0.109. In assay [2], the Kd is 53.5 nM, the koff worked out at 0.00235 s⁻¹ and the kon was determined as 43900 M⁻¹ s⁻¹.

B6: 3E2 scFv-Fc (Fc fusion)
chain: EIQLQQSGAELVKPGASVKMSCKASGYTFSFYNMHWVKRTPGQGLEWIGLIYPDNGDTSYNQKFKGKATLTADTSSSTAYMQLSSLTSEDSAVYYCARGGLDYWGQGTSLTVSSGGGGSGGGGSGGGGSNIVMTQSQKFMSTSVGDRVSVTCKASQNVGTNVAWYQQKPGQSPKALIYSASYRYTGVPDRFTGSGSGTDFTFTISSVQAEDLAVYYCQQHYSTPYTFGGGTKLEIKESKYGPPCPPCPAPEAAGGPSVFLFPPKPKDTLMISRTPEVTCVVVDVSQEDPEVQFNWYVDGVEVHNAKTKPREEQFNSTYRVVSVLTVLHQDWLNGKEYKCKVSNKGLPSSIEKTISKAKGQPREPQVYTLPPSQEEMTKNQVSLTCLVKGFYPSDIAVEWESNGQPENNYKTTPPVLDSDGSFFLYSKLTVDKSRWQEGNVFSCSVMHEALHNHYTQKSLSLSLG
With B6, in assay [1], the OD (450 nm) value was 2.96. For the same molecule, the OD (450 nm) value with FGFR1 (acro) was 0.122. For the same molecule, in assay [2], the Kd came to 36.5 nM, the koff turned out to be 0.00152 s⁻¹ and the kon is 41800 M⁻¹ s⁻¹.

B7: 3H9 scFv-Fc (Fc fusion)
chain: EIQLQQSGAELVKPGASVKMSCKASGYTFSFYNMHWVKRTPGQGLEWIGLIYPDNGDTSYNQKFKGKATLTADTSSSTAYMQLSSLTSEDSAVYYCARGGLDYWGQGTTLTVSSGGGGSGGGGSGGGGSDIVLTQSPASLSVSVGETVTITCRASENIYSNLAWYQQKQGKSPQLLVYAATNLADGVPSRFSGSGSGTQYSLKINSLQSEDFGSYYCQHFWGTPYTFGGGTKLELKESKYGPPCPPCPAPEAAGGPSVFLFPPKPKDTLMISRTPEVTCVVVDVSQEDPEVQFNWYVDGVEVHNAKTKPREEQFNSTYRVVSVLTVLHQDWLNGKEYKCKVSNKGLPSSIEKTISKAKGQPREPQVYTLPPSQEEMTKNQVSLTCLVKGFYPSDIAVEWESNGQPENNYKTTPPVLDSDGSFFLYSKLTVDKSRWQEGNVFSCSVMHEALHNHYTQKSLSLSLG
For the molecule B7, the OD (450 nm) value in assay [1] came to 2.99. Besides, in the assay with FGFR1 (acro), the OD (450 nm) value amounted to 0.646. Also, in assay [2], the Kd worked out at 23.8 nM, the koff was 0.00129 s⁻¹ and the kon was 54200 M⁻¹ s⁻¹.

B8: 1D7 scFv-Fc (Fc fusion)
chain: QIQLQQSGAELVKPGASVKMSCKASGYTFRYYNMHWVKRTPGQGLEWIGLIYPDNGDTSYNQKFKGKATLTADTSSSTAYMQLSSLTSEDSAVYYCARGGLDYWGQGTSLTVSSGGGGSGGGGSGGGGSDIQMTQSPSSMSASLGDRITITCQATQDIVKNLNWYQQKPGKPPSFLIYYATELAEGVPSRFSGSGSGSDYSLTISNLESEDFADYYCLQFYEFPLTFGAGTKLELKESKYGPPCPPCPAPEAAGGPSVFLFPPKPKDTLMISRTPEVTCVVVDVSQEDPEVQFNWYVDGVEVHNAKTKPREEQFNSTYRVVSVLTVLHQDWLNGKEYKCKVSNKGLPSSIEKTISKAKGQPREPQVYTLPPSQEEMTKNQVSLTCLVKGFYPSDIAVEWESNGQPENNYKTTPPVLDSDGSFFLYSKLTVDKSRWQEGNVFSCSVMHEALHNHYTQKSLSLSLG
For the molecule B8, in assay [1], the OD (450 nm) value was 3.04. Further, in the assay with FGFR1 (acro), the OD (450 nm) value worked out at 0.074. In addition, in assay [2], the equilibrium dissociation constant (Kd) stood at 27.6 nM, the koff is 0.00117 s⁻¹ and the kon was 42500 M⁻¹ s⁻¹.

B9: 1B8 scFv-Fc (Fc fusion)
chain: QIQLQQSGAELVKPGASVKMSCKASGYTFASYNLHWVKQTPGQGLEWIGLIYPENGDTSYNQKFKGKATLTADTSSTTAYIQLSSLTSEDSAVYFCARGGFDYWGQGTSLTVSSGGGGSGGGGSGGGGSDIKMTQSPASLSASVGETVTITCGASENIYGALNWYQRKQGKSPQLLIYGATNLADGMSSRFSGSGSGRQYSLKISSLHPDDVATYYCQNVLSTPYTFGGGTKLEIKESKYGPPCPPCPAPEAAGGPSVFLFPPKPKDTLMISRTPEVTCVVVDVSQEDPEVQFNWYVDGVEVHNAKTKPREEQFNSTYRVVSVLTVLHQDWLNGKEYKCKVSNKGLPSSIEKTISKAKGQPREPQVYTLPPSQEEMTKNQVSLTCLVKGFYPSDIAVEWESNGQPENNYKTTPPVLDSDGSFFLYSKLTVDKSRWQEGNVFSCSVMHEALHNHYTQKSLSLSLG
As to B9, the OD (450 nm) value in assay [1] was found to be 2.01. In the assay with FGFR1 (acro), this molecule returned an OD (450 nm) value of 0.092. Moreover, in assay [2], the Kd is 74.9 nM, the koff turned out to be 0.0048 s⁻¹ and the kon is 64000 M⁻¹ s⁻¹.

B10: 3E1 scFv-Fc (Fc fusion)
chain: QVQLQQPGAEVVKPGASVKMSCKASGYTFTDYYIHWVKQTPGQGLEWIGAIYPDNGDTSYNQKFKVKATLTADKSSSTAYMQLSSLTSEDSAVYYCARAFTYWGQGTLVTVSAGGGGSGGGGSGGGGSDILITQSPASLSASVGETVTITCGASENIYGALNWYQRKQGKSPQLLIYGATNLADGMSSRFSGSGSGRQYSLKISSLHPDDVATYYCQNVLSTPYTFGGGTKLEIKESKYGPPCPPCPAPEAAGGPSVFLFPPKPKDTLMISRTPEVTCVVVDVSQEDPEVQFNWYVDGVEVHNAKTKPREEQFNSTYRVVSVLTVLHQDWLNGKEYKCKVSNKGLPSSIEKTISKAKGQPREPQVYTLPPSQEEMTKNQVSLTCLVKGFYPSDIAVEWESNGQPENNYKTTPPVLDSDGSFFLYSKLTVDKSRWQEGNVFSCSVMHEALHNHYTQKSLSLSLG
For B10, the OD (450 nm) value in assay [1] was determined as 2.92. The molecule further yielded an OD (450 nm) value with FGFR1 (acro) of 0.08. Moreover, in assay [2], the Kd was 21.8 nM, the koff came out at 0.00126 s⁻¹ and the kon was 57800 M⁻¹ s⁻¹.
